Data on five molecules can be found in US20140294825A1 (JN BIOSCIENCES, published 2014).

Assay [1] concerns the target T1, human FcRn (human, UniProt P55899 24-365; P61769 21-119).
T1 construct: whole, on cells; Heterodimer stably expressed on the surface of NS0 cells; also called neonatal Fc receptor; NS0/FcRn cells
Kind of assay: flow cytometry on NS0 cells expressing human FcRn, 1 µg/ml antibody, pH 6.0 and 7.5. On the procedure:
(§1) The ability of Ch9G6-IgG1, Ch9G6-IgG1/M and Ch9G6-MVIgG1 antibodies to bind to FcRn in a pH-dependent manner was analyzed by flow cytometry using NS0 cells expressing human FcRn on the cell surface (NS0/FcRn cells). NS0/FcRn transfectants stably expressing human FcRn, a heterodimer composed of the FcRn α chain and β2-microglubulin, on the cell surface was generated following the general procedure described by Hinton et al. (J. Biol. Chem. 279:6213-6216 2004), which is incorporated herein by reference. Ch9G6-IgG1, Ch9G6-IgG1/M and Ch9G6-MVIgG1 at 1 μg/ml were separately incubated with NS0/FcRn cells at pH 6.0 and 7.5 at the primary staining step following the procedure described by Hinton et al. (supra). Antibodies binding to FcRn were detected using PE-labeled goat polyclonal anti-human gamma chain antibody (for Ch9G6-IgG1 and no antibody control) or PE-labeled goat polyclonal anti-human μ chain antibody (for Ch9G6-IgG1/M, Ch9G6-MVIgG1 and no antibody control) at the secondary staining step.
The ability of Ch9G6-IgG3D, Ch9G6-IgG3D/M and Ch9G6-MVIgG3D antibodies to bind to FcRn in a pH-dependent manner was analyzed by flow cytometry using NS0 cells expressing human FcRn on the cell surface (NS0/FcRn cells). Ch9G6-IgG3D, Ch9G6-Ig3D/M and Ch9G6-MVIgG3D at 1 μg/ml were separately incubated with NS0/FcRn cells at pH 6.0 and 7.5 at the primary staining step as described in Example 4. Antibodies binding to FcRn were detected using PE-labeled goat polyclonal anti-human gamma chain antibody (for Ch9G6-IgG3D and no antibody control) or PE-labeled goat polyclonal anti-human μ chain antibody (for Ch9G6-IgG3D/M, Ch9G6-MVIgG3D and no antibody control) at the secondary staining step.

The target in assay [2] is T2, recombinant human CD30 extracellular region fused at the C-terminus to the Fc region of human γ1 chain (human).
T2 construct: also called CD30-Fc
Kind of assay: bridging ELISA: CD30-Fc coated, supernatant, then CD79a-Cλ in solution, anti-human λ chain HRP detection; no signal means the anti-CD79a antibody was not captured on CD30-Fc.

The target in assay [3] is T3, recombinant human CD30 extracellular region fused at the C-terminus to the human λ2 constant region (human).
T3 construct: Cysteine at the second position from the carboxyl terminus of the constant region changed to serine; also called CD30-Cλ
Briefly: bridging ELISA: CD79a-Fc coated, supernatant, then CD30-Cλ in solution, anti-human λ chain HRP detection; no signal means the anti-CD79a antibody did not hold CD30-Cλ.

Assay [4] concerns the target T4, Protein G (Streptococcal, UniProt P19909 303-497).
T4 construct: Commercial resin; also called Protein G Sepharose column
Kind of assay: Protein G Sepharose column, culture supernatant.

Assay [5] deals with T1, human FcRn. Kind of assay: flow cytometry on NS0 cells expressing human FcRn, pH 6.0 and 7.5, PE anti-human µ chain detection. On the procedure: as §1, with “Ch9G6-IgG1, Ch9G6-IgG1/M and Ch9G6-MVIgG1 at 1 μg/ml were separately incubated with NS0/FcRn cells at pH 6.0 and 7.5 at the primary staining step following the procedure described by Hinton et al. (supra).” left out
The ability of Ch9G6-IgG3D, Ch9G6-IgG3D/M and Ch9G6-MVIgG3D antibodies to bind to FcRn in a pH-dependent manner was analyzed by flow cytometry using NS0 cells expressing human FcRn on the cell surface (NS0/FcRn cells). […] Antibodies binding to FcRn were detected using PE-labeled goat polyclonal anti-human gamma chain antibody (for Ch9G6-IgG3D and no antibody control) or PE-labeled goat polyclonal anti-human μ chain antibody (for Ch9G6-IgG3D/M, Ch9G6-MVIgG3D and no antibody control) at the secondary staining step.

For assay [6], the target named is T5, human CD16 (human, UniProt P08637 17-254).
T5 construct: whole, on cells; also called Fcγ receptor type III
Briefly: flow cytometry on HEK293 cells transiently expressing human CD16, PE anti-human µ heavy chain detection.

T1 sequence (P55899 24-365, chain 1 of 2): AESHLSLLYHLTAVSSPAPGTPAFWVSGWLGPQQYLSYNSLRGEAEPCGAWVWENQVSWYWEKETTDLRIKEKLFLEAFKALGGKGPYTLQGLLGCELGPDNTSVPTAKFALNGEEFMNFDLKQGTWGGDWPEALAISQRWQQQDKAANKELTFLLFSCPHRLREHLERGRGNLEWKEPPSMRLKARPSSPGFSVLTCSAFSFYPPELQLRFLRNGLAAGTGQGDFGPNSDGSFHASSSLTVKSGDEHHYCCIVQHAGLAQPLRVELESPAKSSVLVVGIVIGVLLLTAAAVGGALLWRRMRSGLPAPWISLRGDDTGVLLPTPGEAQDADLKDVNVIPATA
T1 sequence (P61769 21-119, chain 2 of 2): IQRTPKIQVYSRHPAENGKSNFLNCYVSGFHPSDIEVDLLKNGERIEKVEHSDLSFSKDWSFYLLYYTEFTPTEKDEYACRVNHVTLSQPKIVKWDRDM
T4 sequence (P19909 303-497): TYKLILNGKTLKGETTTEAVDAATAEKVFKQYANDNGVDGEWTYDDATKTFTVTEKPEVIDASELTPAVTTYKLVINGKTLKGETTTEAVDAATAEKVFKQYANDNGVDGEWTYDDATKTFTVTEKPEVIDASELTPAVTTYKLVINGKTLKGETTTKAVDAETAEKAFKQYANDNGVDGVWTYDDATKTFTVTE
T2 sequence (chain, as listed by the source limits assumed): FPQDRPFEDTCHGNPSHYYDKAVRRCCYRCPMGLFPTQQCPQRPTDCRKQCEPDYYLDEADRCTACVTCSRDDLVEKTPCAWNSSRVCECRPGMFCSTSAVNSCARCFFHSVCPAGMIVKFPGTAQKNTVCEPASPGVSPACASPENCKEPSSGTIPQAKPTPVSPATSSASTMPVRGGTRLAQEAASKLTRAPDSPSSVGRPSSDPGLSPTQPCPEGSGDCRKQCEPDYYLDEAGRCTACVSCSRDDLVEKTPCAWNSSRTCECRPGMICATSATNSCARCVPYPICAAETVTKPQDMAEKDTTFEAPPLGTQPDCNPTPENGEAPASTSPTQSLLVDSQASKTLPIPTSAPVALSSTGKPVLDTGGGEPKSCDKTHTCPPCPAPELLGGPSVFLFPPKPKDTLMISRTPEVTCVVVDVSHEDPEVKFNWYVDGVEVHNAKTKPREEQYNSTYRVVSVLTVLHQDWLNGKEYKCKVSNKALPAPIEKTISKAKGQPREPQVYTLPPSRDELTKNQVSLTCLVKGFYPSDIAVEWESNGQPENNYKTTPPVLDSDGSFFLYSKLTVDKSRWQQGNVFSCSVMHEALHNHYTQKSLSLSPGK
T5 sequence (P08637 17-254): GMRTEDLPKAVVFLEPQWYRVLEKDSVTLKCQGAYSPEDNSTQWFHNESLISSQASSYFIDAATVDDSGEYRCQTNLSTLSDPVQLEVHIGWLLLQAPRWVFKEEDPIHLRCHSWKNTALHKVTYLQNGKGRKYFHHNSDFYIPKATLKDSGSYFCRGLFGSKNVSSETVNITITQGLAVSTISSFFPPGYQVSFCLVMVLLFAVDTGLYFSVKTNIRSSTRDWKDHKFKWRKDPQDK
T3 sequence (chain, as listed by the source limits assumed): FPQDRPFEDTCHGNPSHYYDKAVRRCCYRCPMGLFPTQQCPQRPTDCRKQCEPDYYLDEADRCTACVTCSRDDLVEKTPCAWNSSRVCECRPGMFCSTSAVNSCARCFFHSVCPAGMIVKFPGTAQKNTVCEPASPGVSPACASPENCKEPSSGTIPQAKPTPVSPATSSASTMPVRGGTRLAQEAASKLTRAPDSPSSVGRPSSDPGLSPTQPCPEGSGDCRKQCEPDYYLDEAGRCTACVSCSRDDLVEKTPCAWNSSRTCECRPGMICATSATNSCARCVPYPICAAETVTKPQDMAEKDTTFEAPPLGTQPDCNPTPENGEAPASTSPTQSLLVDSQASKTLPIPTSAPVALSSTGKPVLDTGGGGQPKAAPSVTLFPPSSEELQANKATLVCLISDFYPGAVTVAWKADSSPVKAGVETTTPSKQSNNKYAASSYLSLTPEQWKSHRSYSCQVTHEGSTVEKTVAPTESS

B1: Ch9G6-MVIgG3D (antibody)
heavy: QVQLQQSGPELVKPGASVKISCKASGYTFSTSWMNWVKQRPGQGLEWIGRIYPGDGDTNYNGKFKGKATLTADKSSNTAYMQLSSLTSVDSAVYFCERFYYGNTFAMDYWGQGTSVTVSSASTKGPSVFPLAPCSRSTSGGTAALGCLVKDYFPEPVTVSWNSGALTSGVHTFPAVLQSSGLYSLSSVVTVPSSSLGTQTYTCNVNHKPSNTKVDKRVEPKSCDTPPPCPRCPAPELLGGPSVFLFPPKPKDTLMISRTPEVTCVVVDVSHEDPEVQFKWYVDGVEVHNAKTKPREEQYNSTFRVVSVLTVLHQDWLNGKEYKCKVSNKALPAPIEKTISKTKGQPREPQVYTLPPSREEMTKNQVSLTCLVKGFYPSDIAVEWESSGQPENNYNTTPPMLDSDGSFFLYSKLTVDKSRWQQGNIFSCSVMHEALHNRFTQKSLSLSPGKDQDTAIRVFAIPPSFASIFLTKSTKLTCLVTDLTTYDSVTISWTRQNGEAVKTHTNISESHPNATFSAVGEASICEDDWNSGERFTCTVTHTDLPSPLKQTISRPKGVALHRPDVYLLPPAREQLNLRESATITCLVTGFSPADVFVQWMQRGQPLSPEKYVTSAPMPEPQAPGRYFAHSILTVSEEEWNTGETYTCVVAHEALPNRVTERTVDKSTGKPTLYNVSLVMSDTAGTCY
light: DVLMTQIPLSLPVSLGDQASISCRSSQSIVHSNGNTYLEWYLQKPGQSPKLLIYKVSNRFSGVPDRFSGSGSGTDFTLKISRVEAEDLGVYYCFQGSHVPFTFGSGTKLEIKRTVAAPSVFIFPPSDEQLKSGTASVVCLLNNFYPREAKVQWKVDNALQSGNSQESVTEQDSKDSTYSLSSTLTLSKADYEKHKVYACEVTHQGLSSPVTKSFNRGEC
notes: Pentamer or hexamer of the H2L2 unit in native form (NS0 cells, Protein G purified); also called multivalent IgG3 antibody
As to B1, the binding result in assay [1] was “binds”.

B2: Ch9G6-IgG3D (antibody)
heavy: QVQLQQSGPELVKPGASVKISCKASGYTFSTSWMNWVKQRPGQGLEWIGRIYPGDGDTNYNGKFKGKATLTADKSSNTAYMQLSSLTSVDSAVYFCERFYYGNTFAMDYWGQGTSVTVSSASTKGPSVFPLAPCSRSTSGGTAALGCLVKDYFPEPVTVSWNSGALTSGVHTFPAVLQSSGLYSLSSVVTVPSSSLGTQTYTCNVNHKPSNTKVDKRVEPKSCDTPPPCPRCPAPELLGGPSVFLFPPKPKDTLMISRTPEVTCVVVDVSHEDPEVQFKWYVDGVEVHNAKTKPREEQYNSTFRVVSVLTVLHQDWLNGKEYKCKVSNKALPAPIEKTISKTKGQPREPQVYTLPPSREEMTKNQVSLTCLVKGFYPSDIAVEWESSGQPENNYNTTPPMLDSDGSFFLYSKLTVDKSRWQQGNIFSCSVMHEALHNRFTQKSLSLSPGK
light: B1 light
notes: NS0 cells, Protein G purified; monomer of about 150 kDa; also called chimeric anti-CD79a IgG3 monoclonal antibody (first, second and third hinge regions eliminated)
For the molecule B2, the binding result in assay [1] is “binds”.

B3: Ch9G6-MVIgG1 (antibody)
heavy: not shown
light: B1 light
notes: also called multivalent anti-CD79a IgG1 antibody
As to B3, the binding result in assay [1] is on record as “binds”; in assay [2], “no binding”; in assay [3], “no binding”.

B4: Ch9G6-IgG1 (antibody)
heavy: not shown
light: B1 light
notes: also called chimeric IgG1 form of the mouse anti-human CD79a monoclonal antibody 9G6
As for B4, in assay [1], the binding result is listed as “binds”.

B5: Ch9G6-IgG3D/M (antibody)
heavy: QVQLQQSGPELVKPGASVKISCKASGYTFSTSWMNWVKQRPGQGLEWIGRIYPGDGDTNYNGKFKGKATLTADKSSNTAYMQLSSLTSVDSAVYFCERFYYGNTFAMDYWGQGTSVTVSSASTKGPSVFPLAPCSRSTSGGTAALGCLVKDYFPEPVTVSWNSGALTSGVHTFPAVLQSSGLYSLSSVVTVPSSSLGTQTYTCNVNHKPSNTKVDKRVEPKSCDTPPPCPRCPDQDTAIRVFAIPPSFASIFLTKSTKLTCLVTDLTTYDSVTISWTRQNGEAVKTHTNISESHPNATFSAVGEASICEDDWNSGERFTCTVTHTDLPSPLKQTISRPKGVALHRPDVYLLPPAREQLNLRESATITCLVTGFSPADVFVQWMQRGQPLSPEKYVTSAPMPEPQAPGRYFAHSILTVSEEEWNTGETYTCVVAHEALPNRVTERTVDKSTGKPTLYNVSLVMSDTAGTCY
light: B1 light
notes: NS0 cells, purified on anti-human IgM agarose; mixture of species (650, 180, 90 kDa peaks); also called Ch9G6-Ig3D/M
Turning to B5, the values for the binding result in assay [4], in assay [5] and in assay [6] were “no binding”, “no binding (tested: 1 µg/ml)” and “no binding (tested: 1 µg/ml)”, respectively.
